Experimental findings from the RNAGym collection of RNA variant scans (doi:10.7554/elife.80360) are described below.

B1: CPEB3 Ribozyme (parent)
chain: GGGGGCCACAGCAGAAGCGUUCACGUCGCGGCCCCUGUCAGAUUCUGGUGAAUCUGCGAAUUCUGCUGU

Variants of B1 are the subject of the series. In words: self-cleavage, relative activity (ratio to wild type); higher = more cleavage; co-transcriptional.
As for GGGGGCCACAGCAGAACCGUUCACGUCGCGGCCCCUGGCAGAUUCUGGUGAAUCUGCGAAUUCUGCUGU, the self-cleavage was 0.101. With GGGGGCCACAGCAGAACCGUUCACGUCGCGGCCCCUGCCAGAUUCUGGUGAAUCUGCGAAUUCUGCUGU the figure was 0.137. Under GGGGGCCACAGCAGAACCGUUCACGUCGCGGCCCCUGUCAGAAUCUGGUGAAUCUGCGAAUUCUGCUGU stands 0.0954. With GGGGGCCACAGCAGAACCGUUCACGUCGCGGCCCCUGUCAGAGUCUGGUGAAUCUGCGAAUUCUGCUGU the figure was 0.0986; with GGGGGCCACAGCAGAACCGUUCACGUCGCGGCCCCUGUCAGACUCUGGUGAAUCUGCGAAUUCUGCUGU, 0.111. Take GGGGGCCACAGCAGAAUCGUUCACGUCGCGGCCCCUGUCAGAUUCUGGUGAAUCUGCGUAUUCUGCUGU: the self-cleavage turned out to be 0.147. As for GGGGGCCACAGCAGAAUCGUUCACGUCGCGGCCCCUGUCAGAUUCUGGUGAAUCUGCGGAUUCUGCUGU, the self-cleavage is 0.357. With GGGGGCCACAGCAGAACCGUUCACGUCGCGGCCCCUGUCAGAUUCUGGUGAAGCUGCGAAUUCUGCUGU the figure was 0.126.

Turning to GGGGGCCACAGCAGAACCGUUCACGUCGCGGCCCCAGUCAGAUUCUGGUGAAUCUGCGAAUUCUGCUGU, the self-cleavage is 0.18. Under GGGGGCCACAGCAGAACCGUUCACGUCGCGGCCCCGGUCAGAUUCUGGUGAAUCUGCGAAUUCUGCUGU stands 0.163; under GGGGGCCACAGCAGAACCGUUCACGUCGCGGCCCCUGUCAGAUUCUGGAGAAUCUGCGAAUUCUGCUGU, 0.149; under GGGGGCCACAGCAGAACCGUUCACGUCGCGGCCCCUGUCAGAUUCUGGGGAAUCUGCGAAUUCUGCUGU, 0.148. With GGGGGCCACAGCAGAACCGUUCACGUCGCGGCCCCUGUCAGAUUCUGGCGAAUCUGCGAAUUCUGCUGU the figure was 0.158; with GGGGGCCACAGCAGAACCGUUCACGACGCGGCCCCUGUCAGAUUCUGGUGAAUCUGCGAAUUCUGCUGU, 0.156.

In the case of GGGGGCCACAGCAGAACCGUUCACGCCGCGGCCCCUGUCAGAUUCUGGUGAAUCUGCGAAUUCUGCUGU, the self-cleavage is 0.145.

As to GGGGGCCACAGCAGAACCGUUCACGGCGCGGCCCCUGUCAGAUUCUGGUGAAUCUGCGAAUUCUGCUGU, the self-cleavage worked out at 0.175.

As for GGGGGCCACAGCAGAAUAGUUCACGUCGCGGCCCCUGUCAGAUUCUGGUGAAUCUGCGAAUUCUGCUGU, the self-cleavage worked out at 0.137. With GGGGGCCACAGCAGAAUUGUUCACGUCGCGGCCCCUGUCAGAUUCUGGUGAAUCUGCGAAUUCUGCUGU the figure was 0.155. With GGGGGCCACAGCAGAAUGGUUCACGUCGCGGCCCCUGUCAGAUUCUGGUGAAUCUGCGAAUUCUGCUGU, the self-cleavage turned out to be 0.138.

Take GGGGGCCACAGCAGAAUCGUUCACGUCGCGGCCCCUGUCAGAUUCUGGUGCAUCUGCGAAUUCUGCUGU: the self-cleavage turned out to be 0.423. In the case of GGGGGCCACAGCAGAAUCGUUCACGUCGCGGCCCCUGUCAGAUUCUGGUGGAUCUGCGAAUUCUGCUGU, the self-cleavage was 0.569. With GGGGGCCACAGCAGAAUCGUUCACGUCGCGGCCCCUGUCAGAUUCUGGUGUAUCUGCGAAUUCUGCUGU the figure was 0.43.

As for GGGGGCCACAGCAGAACCGUUCACGUCGCGGCCCCUGUCAGAUUCUGGUGAAUCUGCGAAUUCUGCGGU, the self-cleavage worked out at 0.209.

GGGGGCCACAGCAGAACCGUUCACGUCGCGGCCCCUGUCAGAUUCUGGUGAAUCUGCGAAUUCUGCCGU: the self-cleavage came to 0.145.

In the case of GGGGGCCACAGCAGAACCGUCCACGUCGCGGCCCCUGUCAGAUUCUGGUGAAUCUGCGAAUUCUGCUGU, the self-cleavage is 0.0625. Under GGGGGCCACAGCAGAACCGUGCACGUCGCGGCCCCUGUCAGAUUCUGGUGAAUCUGCGAAUUCUGCUGU stands 0.229; under GGGGGCCACAGCAGAAUCGUUCACGUCGCGGCCUCUGUCAGAUUCUGGUGAAUCUGCGAAUUCUGCUGU, 0.514. For GGGGGCCACAGCAGAAUCGUUCACGUCGCGGCCGCUGUCAGAUUCUGGUGAAUCUGCGAAUUCUGCUGU, the self-cleavage amounted to 0.177. Under GGGGGCCACAGCAGAACCGUUCACGUCGCGGCCCCUGUCAGAUUCUGGUGAAUCCGCGAAUUCUGCUGU stands 0.138; under GGGGGCCACAGCAGAACCGUUCACGUCGCGGCCCCUGUCAGAUUCUGGUGAAUCGGCGAAUUCUGCUGU, 0.062. GGGGGCCACAGCAGAACCGUUCACGUCGCGGCCCCUGUCAGAUUCUGGUGAAUCUGCGAAUUCUGCUCU: the self-cleavage came to 0.242. With GGGGGCCACAGCAGAACCGUUCACGUCGCGGCCCCUGUCAGAUUCUGGUGAAUCUGCGAAUUCUGCUAU the figure was 0.331; with GGGGGCCACAGCAGAACCGUUCACGUCGCGGCCCCUGUCAGAUUCUGGUGAAUCUGCGAAUUCUGCUGG, 0.303; with GGGGGCCACAGCAGAACCGUUCACGUCGCGGCCCCUGUCAGAUUCUGGUGAAUCUGCGAAUUCUGCUGA, 0.246. With GGGGGCCACAGCAGAAUCGUUCAUGUCGCGGCCCCUGUCAGAUUCUGGUGAAUCUGCGAAUUCUGCUGU the figure was 0.179; with GGGGGCCACAGCAGAAUCGUUCAGGUCGCGGCCCCUGUCAGAUUCUGGUGAAUCUGCGAAUUCUGCUGU, 0.0814.

As to GGGGGCCACAGCAGAAUCGUUCAAGUCGCGGCCCCUGUCAGAUUCUGGUGAAUCUGCGAAUUCUGCUGU, the self-cleavage amounted to 0.133. As for GGGGGCCACAGCAGAAUCGUUCACGUCGCGGCACCUGUCAGAUUCUGGUGAAUCUGCGAAUUCUGCUGU, the self-cleavage came out at 0.228.

On to GGGGGCCACAGCAGAAUCGUUCACGUCGCGGCUCCUGUCAGAUUCUGGUGAAUCUGCGAAUUCUGCUGU, for which the self-cleavage came to 0.347. With GGGGGCCACAGCAGAAUCGUUCACGUCGAGGCCCCUGUCAGAUUCUGGUGAAUCUGCGAAUUCUGCUGU the figure was 0.921; with GGGGGCCACAGCAGAAUCGUUCACGUCGUGGCCCCUGUCAGAUUCUGGUGAAUCUGCGAAUUCUGCUGU, 0.268.

As to GGGGGCCACAGCAGAAUCGUUCACGUCGGGGCCCCUGUCAGAUUCUGGUGAAUCUGCGAAUUCUGCUGU, the self-cleavage was 0.885. Under GGGGGCCACAGCAGAAUCGUUCACGUCGCGGCCCCUGUAAGAUUCUGGUGAAUCUGCGAAUUCUGCUGU stands 0.167; under GGGGGCCACAGCAGAAUCGUUCACGUCGCGGCCCCUGUGAGAUUCUGGUGAAUCUGCGAAUUCUGCUGU, 0.289. Consider GGGGGCCACAGCAGAAUCGUUCACGUCGCGGCCCCUGUCUGAUUCUGGUGAAUCUGCGAAUUCUGCUGU, for which the self-cleavage worked out at 0.149.

For GGGGGCCACAGCAGAAUCGUUAACGUCGCGGCCCCUGUCAGAUUCUGGUGAAUCUGCGAAUUCUGCUGU, the self-cleavage stood at 0.132. Under GGGGGCCACAGCAGAAUCGUUUACGUCGCGGCCCCUGUCAGAUUCUGGUGAAUCUGCGAAUUCUGCUGU stands 0.169. With GGGGGCCACAGCAGAAUCGUUGACGUCGCGGCCCCUGUCAGAUUCUGGUGAAUCUGCGAAUUCUGCUGU the figure was 0.112; with GGGGGCCACAGCAGAACCGUUCACGUCGCGGCCCCUGUCAGAUUCUGGUGAAUCUGCUAAUUCUGCUGU, 0.227; with GGGGGCCACAGCAGAAUCGUUCACGUCGCGGCCCUUGUCAGAUUCUGGUGAAUCUGCGAAUUCUGCUGU, 0.338.

For GGGGGCCACAGCAGAAUCGUUCACGUCGCGGCCCAUGUCAGAUUCUGGUGAAUCUGCGAAUUCUGCUGU, the self-cleavage worked out at 0.214. Under GGGGGCCACAGCAGAAUCGUUCACGUCGCGGCCCGUGUCAGAUUCUGGUGAAUCUGCGAAUUCUGCUGU stands 0.227; under GGGGGCCACAGCAGAAUCGUUCACGUCGCGGCCCCUGUCAGAUUCUGGUGACUCUGCGAAUUCUGCUGU, 0.5; under GGGGGCCACAGCAGAAUCGUUCACGUCGCGGCCCCUGUCAGAUUCUGGUGAGUCUGCGAAUUCUGCUGU, 0.585. Turning to GGGGGCCACAGCAGAACCGUUCACGUCGCGGCCCCUGUCAGAUUCUGGUGAAUCUGCGAAUUCGGCUGU, the self-cleavage is 0.171. With GGGGGCCACAGCAGAACCGUUCACGUCGCGGCCCCUGUCAGAUUCUGGUGAAUCUGCGAAUUCAGCUGU the figure was 0.112. Under GGGGGCCACAGCAGAACCGUUCACGUCGCGGCCCCUGUCAGAUUCUGGUGAAUCUGCGAAUUCCGCUGU stands 0.203; under GGGGGCCACAGCAGAAUCGUUCACGUCGCGGACCCUGUCAGAUUCUGGUGAAUCUGCGAAUUCUGCUGU, 0.154; under GGGGGCCACAGCAGAAUCGUUCACGUCGCGGCCCCUGUCAGAUUCUGGUGAAUCUGCGAGUUCUGCUGU, 0.248. GGGGGCCACAGCAGAAUCGUUCACGUCGCGGCCCCUGUCAGAUUCUGGUGAAUCUGCGACUUCUGCUGU: the self-cleavage worked out at 0.185. With GGGGGCCACAGCAGAAUCGUUCACGUCGCGGCCCCUGUCAGAUUCUGGUGAAUCUGCGAUUUCUGCUGU the figure was 0.229. With GGGGGCCACAGCAGAACCGAUCACGUCGCGGCCCCUGUCAGAUUCUGGUGAAUCUGCGAAUUCUGCUGU, the self-cleavage amounted to 0.123. Under GGGGGCCACAGCAGAACCGGUCACGUCGCGGCCCCUGUCAGAUUCUGGUGAAUCUGCGAAUUCUGCUGU stands 0.132; under GGGGGCCACAGCAGAACCGUUCACGUCGCGGCCCCUGUCAGAUUCCGGUGAAUCUGCGAAUUCUGCUGU, 0.119. With GGGGGCCACAGCAGAACCGUUCACGUCGCGGCCCCUGUCAGAUUCAGGUGAAUCUGCGAAUUCUGCUGU the figure was 0.122; with GGGGGCCACAGCAGAACCGUUCACGUCGCGGCCCCUGUCAGAUUCGGGUGAAUCUGCGAAUUCUGCUGU, 0.101; with GGGGGCCACAGCAGAACCGUUCACGUCGCGGCCCCUGUCAGAUUCUGGUGAAUCUGCGAAGUCUGCUGU, 0.205.

As to GGGGGCCACAGCAGAACCGUUCACGUCGCGGCCCCUGUCAGAUUCUGGUGAAUCUGCGAACUCUGCUGU, the self-cleavage was 0.118. Consider GGGGGCCACAGCAGAAUCGUUCGCGUCGCGGCCCCUGUCAGAUUCUGGUGAAUCUGCGAAUUCUGCUGU, for which the self-cleavage stood at 0.331. Under GGGGGCCACAGCAGAAUCGUUCCCGUCGCGGCCCCUGUCAGAUUCUGGUGAAUCUGCGAAUUCUGCUGU stands 0.462; under GGGGGCCACAGCAGAACCGUUCACGUCGCGGCCCCUGUCAGAUUCUGGUGAAUCUGCGAAUUCUUCUGU, 0.131. With GGGGGCCACAGCAGAACCGUUCACGUCGCGGCCCCUGUCAGAUUCUGGUGAAUCUGCGAAUUCUACUGU the figure was 0.158; with GGGGGCCACAGCAGAAUCGUUCACGUCGCGGCCCCUGUCAGUUUCUGGUGAAUCUGCGAAUUCUGCUGU, 0.334. Take GGGGGCCACAGCAGAAUCGUUCACGUCGCGGCCCCUGUCAGCUUCUGGUGAAUCUGCGAAUUCUGCUGU: the self-cleavage was 0.299. Turning to GGGGGCCACAGCAGAACCGUUCACGUCGCGGCCCCUGUCAGAUUCUGGUGAAUCUGCGAAUGCUGCUGU, the self-cleavage turned out to be 0.201.

As to GGGGGCCACAGCAGAACCGUUCACGUCGCGGCCCCUGUCAGAUUCUGGUGAAUCUGCGAAUACUGCUGU, the self-cleavage was 0.171. Under GGGGGCCACAGCAGAAUCGUUCACGUGGCGGCCCCUGUCAGAUUCUGGUGAAUCUGCGAAUUCUGCUGU stands 0.185; under GGGGGCCACAGCAGAAUCGUUCACGUAGCGGCCCCUGUCAGAUUCUGGUGAAUCUGCGAAUUCUGCUGU, 0.132.
